Results on 83 variants are retold here after the RNAGym collection of RNA variant scans (doi:10.1073/pnas.2313332121).

This sample holds only a part of the variants without activity.

First the molecules themselves.
B1: TPR 5TU (parent)
chain: GGAUCUUCUCGAUCUAACAAAAAAGACAAAUCUGCCACAAAGCUUGAGAGCAUCUUCGGAUGCAGAGGCGGCAGCCUUCGGUGGCGCGAUAGCGCCAACGUUCUCAACUAUGACACGCAAAACGCGUGCUCCGUUGAAUGGAGUUUAUCAUG

Variants of B1 are the subject of the data set. Description: polymerase ribozyme fitness, log enrichment relative to wild type (log ratio); higher = more active; in vitro selection for triplet polymerase activity. Summed up: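 One round of in vitro selection, in triplicate, was applied to PCR-built, transcribed mutant libraries of each subunit of a heterodimeric triplet polymerase ribozyme. The steps were annealing with a biotinylated primer, partner subunit and triplets, incubation frozen at −7 °C, gel excision of extended constructs, streptavidin-bead capture and RT-PCR. Fitness is the logarithm, base 2, of genotype enrichment over wild-type enrichment from inverse-variance-weighted replicate averages of Illumina-sequenced inputs and outputs, keeping genotypes with ≥10 input reads and ≥1 read per output.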
As for A17U C85A C96G, the “polymerase ribozyme fitness (log ratio)” value is -2.34.
Turning to A110U U127A, the “polymerase ribozyme fitness (log ratio)” value was -4.06.
In the case of G11C A52G G84A G133C G141A it was ≤ -4.2; in that of C27A C85U C96A C114U A119G G140C, -4.07.
As for U13A C105A A107C U134A, the “polymerase ribozyme fitness (log ratio)” value was ≤ -4.2.
The same measure for C8U G83A: -2.94; for A23C A29U G68C U82G G133U U134A A138U: ≤ -4.2; for C79A C96A: -4.03.
For the variant A19U A20C G59A A89U C95U G126C, the “polymerase ribozyme fitness (log ratio)” value is -0.274.
The same measure for C79U C85U: -1.94; for A29C A52G U55A C75G A106U A110G A121U U127A: ≤ -4.2.
The same measure for C57U A138U U145G: -3.98.
The same measure for A3C C85U C95U C114U G133C: ≤ -4.2; for U55A U78G G84U C87G C118U: ≤ -4.2; for G70U C87A A115U C116A U151A: ≤ -4.2.
Turning to C8A A26U A49U G83U U101G C118U A138C, the “polymerase ribozyme fitness (log ratio)” value is ≤ -4.2.
In the case of G11A A40G A49C U61A G81A C125A, the “polymerase ribozyme fitness (log ratio)” value was ≤ -4.2.
In the case of A23C U33A A41G U45A C87G C103G it was ≤ -4.2.
The same measure for A20C A28U G48C G70A C87G A120G U135C: ≤ -4.2; for C35A A41C G59C C87U G100C C105G A121C: ≤ -4.2; for A41C U53A C76U: -1.65.
With C18U A22G A49C G86A C131G, the “polymerase ribozyme fitness (log ratio)” value is -4.14.
As for C57U A73G G84C C95A C118G, the “polymerase ribozyme fitness (log ratio)” value was -2.62.
In the case of C93U C99G G136A, the “polymerase ribozyme fitness (log ratio)” value was -0.753.
The same measure for A28U A64G A66U A73U G81U C95U C114U C149A: ≤ -4.2; for A3G A20U C27G G42A U56A U77G G86A G117U G133C: ≤ -4.2; for G84U C131G: -3.96.
On to C5G A23C C72U G88U C132G U135G U148G, for which the “polymerase ribozyme fitness (log ratio)” value was -3.99.
The same measure for A64C G65A G84U C116G U139C: ≤ -4.2; for A16G A29U U45A C54G C87G C125G: ≤ -4.2; for A28G A41C C96A U145G: ≤ -4.2.
Consider C75U C93G, for which the “polymerase ribozyme fitness (log ratio)” value was -3.
Take A3U G59C C85U G126A: the “polymerase ribozyme fitness (log ratio)” value was -0.686.
The same measure for A30U A52G U53A U146G: ≤ -4.2; for C27G C38U A39G A73C G94U U146C G152U: ≤ -4.2.
G46C C57A A66U A113C: the “polymerase ribozyme fitness (log ratio)” value was ≤ -4.2.
In the case of C43U G68A G86U it was ≤ -4.2; in that of A3C U4A A121G G141A A142C, -4.03.
In the case of C18U C38U U55C A97U A120C it was -1.43; in that of A20G G58A G81C A142C, -1.55; in that of G42C C79G G124C, ≤ -4.2.
For C87G A98U, the “polymerase ribozyme fitness (log ratio)” value was -3.64.
As to C32U U53A A91C G94A C105G A121U U151C, the “polymerase ribozyme fitness (log ratio)” value was ≤ -4.2.
As for A37C C93U, the “polymerase ribozyme fitness (log ratio)” value was -1.64.
The same measure for U55G U127C: -1.36; for G94C C131U: -1.79; for C87U U148A: -3.62.
Consider U56A U109C, for which the “polymerase ribozyme fitness (log ratio)” value was -3.5.
Turning to G48A G88A C105G A115U, the “polymerase ribozyme fitness (log ratio)” value is -3.86.
With U7C A20C A89G C96A U111C C118U, the “polymerase ribozyme fitness (log ratio)” value was ≤ -4.2.
As for A20C C96U, the “polymerase ribozyme fitness (log ratio)” value is -1.24.
As to C10U C14G A39C A91G C95G C99U C105G A137G, the “polymerase ribozyme fitness (log ratio)” value was ≤ -4.2.
In the case of A12G C75U C93U U144C it was -0.389; in that of U7G C32U C54G C96U, ≤ -4.2.
U53G A115C G143A: the “polymerase ribozyme fitness (log ratio)” value was -4.06.
In the case of C99U G136A it was 0.0423; in that of C76A C131G, -3.98.
In the case of G58C C96G it was -1.88.
Take U53A C63U C69U A122U: the “polymerase ribozyme fitness (log ratio)” value is -3.99.
Regarding A26G A29C C79A G100A, the “polymerase ribozyme fitness (log ratio)” value was ≤ -4.2.
The same measure for A73C A121U G133U: ≤ -4.2.
In the case of A21C A23G A37C C95G it was ≤ -4.2.
The same measure for A19G A41U A66C C93U C99U A115U G140A G141C: ≤ -4.2.
For the variant G59A G86U, the “polymerase ribozyme fitness (log ratio)” value is -1.84.
In the case of A40G A115G A137G C149U it was -4.02.
As for C72U A91U G92A U127G, the “polymerase ribozyme fitness (log ratio)” value is ≤ -4.2.
The same measure for G42A C54G U82C G94U: ≤ -4.2; for U61A U101G: -1.11; for A20U C35A A41C C95U U145A: ≤ -4.2.
In the case of A12U C93U it was -1.13; in that of A22U U82A C96U, 0.375; in that of A29U G48U U61G G83C, ≤ -4.2.
As for U6C U61A G68C G84A G88U A121G G124A, the “polymerase ribozyme fitness (log ratio)” value was ≤ -4.2.
Take C69G C93A: the “polymerase ribozyme fitness (log ratio)” value is ≤ -4.2.
The same measure for U9G G11C C76A G92C U134C U139G A150G: ≤ -4.2; for U61C C76A: -2.59; for U90A C125G A147C U148C: -3.99.
The same measure for G140A: -2.67.
Turning to G25U A41G U53G C54U G92C G124A U151C, the “polymerase ribozyme fitness (log ratio)” value is ≤ -4.2.
For the variant A49U U56A C99G A147G, the “polymerase ribozyme fitness (log ratio)” value was ≤ -4.2.
On to C8A U13G A21G A28G G68U G81A C118G G143U, for which the “polymerase ribozyme fitness (log ratio)” value was ≤ -4.2.
As to A47C A60G C93A C95A C96U U139G, the “polymerase ribozyme fitness (log ratio)” value was ≤ -4.2.
The same measure for A3U U13G A20U G74C: ≤ -4.2.
